From US20260092115A1 (Chugai, published 2026) come the findings set out here.

For experiment [1], the target named is T1, human FcγRIIb extracellular domain, His-tagged (human, UniProt P31994 43-217).
T1 construct: extracellular domain; also called hFcγR IIb
T1 sequence (looked up): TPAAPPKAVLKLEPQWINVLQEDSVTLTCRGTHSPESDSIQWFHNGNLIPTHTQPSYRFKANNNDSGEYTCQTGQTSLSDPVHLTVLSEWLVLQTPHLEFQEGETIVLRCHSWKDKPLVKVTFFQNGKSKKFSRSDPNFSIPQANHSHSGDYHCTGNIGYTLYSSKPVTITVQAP
The experiment is described as follows: binding amount of this antibody divided by that of 04H1637-G1m/04L1610-lam1; SPR pH 7.4. As to the method: (§1) The interaction between the generated antibodies and human FcγRs was analyzed by the following method using Biacore T200. 50 mM Na-Phosphate, 150 mM NaCl, 0.05% Tween20 (pH 7.4) was used as the running buffer, and the assay was performed at 25° C. For the sensor chips, Series S SA (GE Healthcare) chips onto which CaptureSelect Human Fab-lambda Kinetics Biotin Conjugate (Thermo Fisher Scientific) was immobilized were used. The antibodies of interest were captured onto these chips and each FcγR diluted in the running buffer was allowed to interact with them. Chips were regenerated with 10 mM Glycine-HCl (pH 1.5) and 25 mM NaOH, and assay was performed by repeatedly capturing antibodies. The dissociation constants KD (mol/L) for FcγRs of each antibody were calculated using Biacore T200 Evaluation Software 2.0, using the 1:1 Langmuir binding model for FcγRIa and FcγRIIIa and the steady state affinity model for FcγRIIa. For FcγRIIb, the binding amount of FcγRIIb per unit amount of antibody was calculated by correcting the binding amount of FcγRIIb obtained from the sensorgram obtained by the measurement with the amount of antibody captured onto the chip surface.
(§2) “Relative value to KD between G1m and hFcRn” and “Relative value to KD between G1m and hFcγRs” are values obtained by dividing the KD value of 04H1637-G1m/04L1610-lam1 for hFcRn and for each FcγR by the KD value of each variant, respectively. “Relative binding amount” indicates the value obtained by dividing the binding amount of each variant to FcγRIIb by the binding amount of 04H1637-G1m/04L1610-lam1. […] It was shown that all of the generated heterodimerized antibodies had enhanced binding to FcγRIIa and FcγRIIIa as compared with 04H1637-G1m/04L1610-lam1 which has the constant region of native human IgG1.

Experiment [2] addresses T1, human FcγRIIb extracellular domain, …. The experiment is described as follows: SPR Biacore T200, 25C, pH 7.4; FcγRIIb at 1000 nM, corrected by captured antibody. As to the method:
as §1
For orientation: SPR reads the build-up and loss of mass on a sensor chip optically.

In the next experiment the target is T2, human FcRn (human, UniProt P55899 24-290; P61769 21-119).
T2 construct: Prepared by the method of WO 2010/107110; also called hFcRn
The experiment is described as follows: KD of 04H1637-G1m/04L1610-lam1 divided by KD of this antibody; SPR pH 6.0. As to the method:
The interaction between the generated antibodies and human FcRn was analyzed by the following method using Biacore T200. 50 mM Na-Phosphate, 150 mM NaCl, 0.05% Tween20 (pH 6.0) was used as the running buffer, and the assay was performed at 25° C. For the sensor chip, Series S SA (GE Healthcare) chips onto which CaptureSelect Human Fab-lambda Kinetics Biotin Conjugate (Thermo Fisher Scientific) was immobilized were used. The antibodies of interest were captured onto these chips and FcRn diluted in the running buffer was allowed to interact with them. Chips were regenerated with 10 mM Glycine-HCl (pH 1.5) and 25 mM NaOH, and assay was performed by repeatedly capturing antibodies. The dissociation constant for FcRn of each antibody was calculated using the steady state model, using Biacore T200 Evaluation Software 2.0.
“Relative value to KD between G1m and hFcRn” and “Relative value to KD between G1m and hFcγRs” are values obtained by dividing the KD value of 04H1637-G1m/04L1610-lam1 for hFcRn and for each FcγR by the KD value of each variant, respectively. “Relative binding amount” indicates the value obtained by dividing the binding amount of each variant to FcγRIIb by the binding amount of 04H1637-G1m/04L1610-lam1. […] It was shown that all of the generated heterodimerized antibodies had enhanced binding to FcγRIIa and FcγRIIIa as compared with 04H1637-G1m/04L1610-lam1 which has the constant region of native human IgG1. Furthermore, 04H1637-Kn462/04L1610-lam1//04H1637-H1441/04L1610-lam1, 04H1637-Kn462/04L1610-lam1//04H1637-H1445/04L1610-lam1, and 04H1637-Kn461/04L1610-lam1//04H1637-H1443/04L1610-lam1 were all shown to have enhanced binding to FcγRIIa compared to 04H1637-Kn125/04L1610-lam1//04H1637-H1076/04L1610-lam 1 which has the Fc region variant reported in WO 2013/002362.

The target of experiment [3] is T3, human FcγRIIIa, allotype V158, extracellular domain, His-tagged (human, UniProt P08637 17-208).
T3 construct: extracellular domain; also called hFcγR IIIa V
The experiment is described as follows: KD of 04H1637-G1m/04L1610-lam1 divided by KD of this antibody; SPR pH 7.4. As to the method: as §1, §2

Experiment [4] concerns the target T4, human FcγRIIIa, allotype F158, extracellular domain, His-tagged (human, UniProt P08637 17-208).
T4 construct: extracellular domain; also called hFcγR IIIa F
Described as above. As to the method:
as §1, §2

Experiment [5] has as its target T5, human FcγRIIa, type R, extracellular domain, His-tagged (human, UniProt P12318 34-217).
T5 construct: extracellular domain; also called hFcγR IIa R
T5 sequence (looked up): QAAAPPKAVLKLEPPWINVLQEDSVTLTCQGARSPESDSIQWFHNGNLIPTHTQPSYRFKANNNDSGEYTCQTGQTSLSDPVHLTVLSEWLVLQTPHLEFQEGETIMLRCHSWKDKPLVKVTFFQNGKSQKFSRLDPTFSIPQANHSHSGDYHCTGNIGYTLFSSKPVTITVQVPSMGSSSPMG
Described as above. As to the method: as §1, §2

Experiment [6] deals with T6, human FcγRIIa, type H, extracellular domain, His-tagged (human, UniProt P12318 34-217).
T6 construct: extracellular domain; also called hFcγR IIa H
T6 sequence (looked up): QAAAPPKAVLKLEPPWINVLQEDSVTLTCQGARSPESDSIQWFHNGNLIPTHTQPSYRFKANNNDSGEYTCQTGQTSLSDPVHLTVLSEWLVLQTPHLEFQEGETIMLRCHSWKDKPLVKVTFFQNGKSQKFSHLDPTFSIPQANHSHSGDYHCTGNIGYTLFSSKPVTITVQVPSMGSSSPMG
The description is as above. Here is the method: as §1, §2

In experiment [7] the target is T7, human FcγRIa extracellular domain, His-tagged (human, UniProt P12314 16-292).
T7 construct: also called hFcγR Ia
The experiment is described as above. As to the method: as §1, §2

T7 sequence (P12314 16-292): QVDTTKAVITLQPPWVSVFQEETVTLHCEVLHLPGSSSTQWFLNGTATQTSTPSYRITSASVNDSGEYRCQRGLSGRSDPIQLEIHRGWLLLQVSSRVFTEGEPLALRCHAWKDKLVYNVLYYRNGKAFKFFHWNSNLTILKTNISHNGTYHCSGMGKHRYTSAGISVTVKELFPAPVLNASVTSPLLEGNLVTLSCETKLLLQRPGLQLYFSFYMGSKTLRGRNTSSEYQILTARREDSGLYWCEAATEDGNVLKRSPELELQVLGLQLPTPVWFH
T3 sequence (P08637 17-208 F176V): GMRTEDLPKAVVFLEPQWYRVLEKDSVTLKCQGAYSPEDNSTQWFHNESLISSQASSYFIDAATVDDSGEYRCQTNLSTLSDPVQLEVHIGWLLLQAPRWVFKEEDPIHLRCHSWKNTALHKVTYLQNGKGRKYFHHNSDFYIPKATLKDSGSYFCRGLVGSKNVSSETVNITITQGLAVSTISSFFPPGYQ
T2 sequence (P55899 24-290 limits assumed, chain 1 of 2): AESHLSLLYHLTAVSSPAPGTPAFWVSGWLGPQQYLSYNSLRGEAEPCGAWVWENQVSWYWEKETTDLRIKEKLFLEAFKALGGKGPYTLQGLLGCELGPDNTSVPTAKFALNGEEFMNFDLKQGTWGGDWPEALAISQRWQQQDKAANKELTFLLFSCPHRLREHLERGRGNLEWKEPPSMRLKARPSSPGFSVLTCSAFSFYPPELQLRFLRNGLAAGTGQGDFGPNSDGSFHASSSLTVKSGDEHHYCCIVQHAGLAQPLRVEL
T2 sequence (P61769 21-119 limits assumed, chain 2 of 2): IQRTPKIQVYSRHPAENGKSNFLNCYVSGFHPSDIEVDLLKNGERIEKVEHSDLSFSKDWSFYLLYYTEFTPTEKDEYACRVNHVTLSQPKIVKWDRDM
T4 sequence (P08637 17-208): as the sequence (P08637 17-208 F176V) above, with V160F counted along it

B1: 04H1654-KT462/04L1610-lam1//04H1656-HT445/04L1610-lam1 (antibody, human IgG1, lambda)
heavy 1: QVQLVESGGGVVQPGGSLRLSCAASGFTFSSKTMNWVRQAPGKGLEWVSSISTQSHYIYYARSVRGRFTISRDNAKNSLYLQMNSLRAEDTAVYYCARYGKREDMLWVFDYWGQGTLVTVSSASTKGPSVFPLAPSSKSTSGGTAALGCLVKDYFPEPVTVSWNSGALTSGVHTFPAVLQSSGLYSLSSVVTVPSSSLGTQTYICNVNHKPSNTKVDKRVEPKSCDKTHTCPPCPAPEFQWGPMVFLFPPKPKDVLMISRTPEVTCVVVDVSDEEPEVKFNWYVDGVEVHNAKTKPREEQYNATYRVVSVLPVLHQDWLNGKEYKCKVSNDALPAPIEKTISKAKGQPREPQVYTLPPSRKEMTKNQVSLTCLVKGFYPSDIAVEWESNGQPENNYKTTPPVLDSDGSFFLYSKLTVDKSRWQQGNVFSCSVMHEALHNHYTQKSLSLSP
heavy 2: QVQLVESGGGVVQPGGSLRLSCAASGFTFSSKTMNWVRQAPGKGLEWVSSISTQSHYIYYAESVRGRFTISRDNAKNSLYLQMNSLRAEDTAVYYCARYGAREDMLWVFDYWGQGTLVTVSSASTKGPSVFPLAPSSKSTSGGTAALGCLVKDYFPEPVTVSWNSGALTSGVHTFPAVLQSSGLYSLSSVVTVPSSSLGTQTYICNVNHKPSNTKVDKRVEPKSCDKTHTCPPCPAPELLAGPSVFLFPPKPKDVLMISRTPEVTCVVVDVSHEEPEVKFNWYVDGVEVHNAKTKPREEQYNATYRVVSVLPVLHQDWLNGKEYKCKVSNDALPKPDEETISKAKGQPREPQVYTLPPSREEMTKNQVSLTCLVKGFYPSDIAVEWESNGQPENNYKTTPPVLDSDGSFFLYSKLTVDKSRWQQGNVFSCSVMHEALHNHYTQESLSLSP
light: QSALTQPPSASGSPGQSVTISCEGPSTGVGDYNWVHWYQQHPGKAPKLMIYFTSKKPSGVPDRFSGSKSGNTASLTVSGLQAEDEADYYCQTYAAPLGPMFGGGTKLTVLGQPKAAPSVTLFPPSSEELQANKATLVCLISDFYPGAVTVAWKADSSPVKAGVETTTPSKQSNNKYAASSYLSLTPEQWKSHRSYSCQVTHEGSTVEKTVAPTECS
notes: Heterodimerized IgG1 (IGHG1*03) Fc variant
In turn, B1 had a Relative binding amount in experiment [1] of 3.1 ratio. Further, in experiment [2], the Binding amount was 0.025 RU per RU of captured antibody. In addition, the “Relative value to KD between G1m and hFcRn” value in the experiment with human FcRn was 0.9 ratio. In addition, the “Relative value to KD between G1m and hFcγRs” value in experiment [3] was 110 ratio; in experiment [4], 415 ratio; in experiment [5], 13 ratio; in experiment [6], 13.9 ratio; in experiment [7] it was 1.6 ratio.
